Source: PMC5339767, “A Novel Kleefstra Syndrome-associated Variant That Affects the Conserved TPLX Motif within the Ankyrin Repeat of EHMT1 Leads to Abnormal Protein Folding” (The Journal of Biological Chemistry, 2017)
Entries after “also recorded” stand apart in the source; their conditions may differ.

How the values were obtained:
EHMT1 WT = target: T1, EHMT1 WT (Homo sapiens, UniProt Q9H9B1); assay: Trp fluorescence quenching titration of dimethylated histone H3 Lys9 peptide, WT EHMT1; assay type: binding; settings: WT EHMT1 1 μM; stepwise addition of peptide (36.3 μM); 2 min equilibration; 20 °C; λEx 295 nm, λEm 350 nm; midpoint of logistic function with Hill slope; read-out: apparent affinity
T1 construct: WT and p.P809L EHMT1 variant ankyrin domains expressed from Escherichia coli; His6 (N); made in house; host or cells: E. coli BL21 (DE3), pET vector
T1 sequence (Q9H9B1 765-1001 limits assumed): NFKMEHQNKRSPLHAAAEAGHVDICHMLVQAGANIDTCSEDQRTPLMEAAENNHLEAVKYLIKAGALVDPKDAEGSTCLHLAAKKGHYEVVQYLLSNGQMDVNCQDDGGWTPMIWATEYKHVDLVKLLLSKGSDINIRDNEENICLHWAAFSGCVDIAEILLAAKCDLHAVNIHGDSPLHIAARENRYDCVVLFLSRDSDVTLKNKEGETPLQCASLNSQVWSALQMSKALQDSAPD
Method: (§1) Circular dichroism spectra (Fig. 7, left panel) were recorded to study the effect of the p.P809L mutation on the secondary structure of EHMT1 and confirm the in silico predictions that the p.P809L variant causes abnormal protein folding. The far UV CD spectrum of EHMT1 is dominated by the α-helical content of the protein showing two characteristic minima at 222 and 208 nm. […] Lastly, because the ankyrin repeat domain of the EHMT1 is critical for binding to methylated histones to regulate gene expression, we also studied the interaction of EHMT1 and the p.P809L mutation with its dimethylated target, the histone H3K9 peptide, by monitoring the Trp fluorescence emission at 350 nm after excitation at 295 nm (Fig. 9, left panel).
FIGURE 9. Interaction of EHMT1 with the dimethylated histone H3 Lys^9 peptide. […] The change in fluorescence intensity was followed at λEm = 350 nm after excitation at λEx = 295 nm. […]
For experimental purposes, we produced and purified an N-terminal His6-tagged recombinant form of WT and the p.P809L EHMT1 proteins using the pET vector system (Novagen). […] Spectra in the far UV range (200–260 nm) for WT and p.P809L EHMT1 were recorded on an Aviv Biomedical Model 420SF circular dichroism spectrometer. […] Fluorescence measurements were performed at 20 °C on a Horiba Jobin-Yvon Fluorolog 3 spectrofluorometer equipped with a Wavelength Electronics LF1-3751 temperature controller. […]

[1] = intrinsic protein fluorescence emission spectra; assay type: physicochemical; settings: protein 1 μM, 20 °C; for λmax of fluorescence emission: excitation 280 and 295 nm, emission 310-440 nm
Method: as §1
FIGURE 8. Fluorescence emission spectra of WT EHMT1 and of p.P809L. Fluorescence emission spectra of WT EHMT1 (solid symbols and bars) and of p.P809L (open symbols and bars) were obtained. Spectra were recorded at 20 °C using a protein concentration of 1 μM. The excitation wavelengths (λEx) were 280 nm (circles; excitation of Trp and Tyr residues) and 295 nm (squares; selective excitation of Trp residues). […]
For experimental purposes, we produced and purified an N-terminal His6-tagged recombinant form of WT and the p.P809L EHMT1 proteins using the pET vector system (Novagen). […] Spectra in the far UV range (200–260 nm) for WT and p.P809L EHMT1 were recorded on an Aviv Biomedical Model 420SF circular dichroism spectrometer. […] Fluorescence measurements were performed at 20 °C on a Horiba Jobin-Yvon Fluorolog 3 spectrofluorometer equipped with a Wavelength Electronics LF1-3751 temperature controller. Fluorescence emission spectra of both proteins were recorded between 310 and 440 nm after excitation at 280 or 295 nm using a protein concentration of 1 μM in a 1-cm quartz cell. […] After equilibration for 2 min, the fluorescence signal was recorded and averaged for 20 s using an excitation wavelength of 295 nm for the selective excitation of Trp residues and an emission wavelength of 350 nm. […]

[2] = far UV circular dichroism spectroscopy; assay type: physicochemical; settings: far UV CD 200–260 nm, 20 °C; Bestsel deconvolution; compared with WT
Method: as §1
FIGURE 7. Impact of the p. P809L mutation on secondary structure. Left panel, far UV CD spectra of WT EHMT1 (●) and of p.P809L (○) were recorded at 20 °C, corrected by the signal of the buffer, and converted to mean ellipticity per amino acid residue (ϴ^MRW). […]
For experimental purposes, we produced and purified an N-terminal His6-tagged recombinant form of WT and the p.P809L EHMT1 proteins using the pET vector system (Novagen). […] Spectra in the far UV range (200–260 nm) for WT and p.P809L EHMT1 were recorded on an Aviv Biomedical Model 420SF circular dichroism spectrometer. […]

[3] = p.P81L mutation in TPLX motif of p16; cited from earlier work
From the text: (§2) Nevertheless, our study is the first to describe how mutations in any of the TPLX motifs of the EHMT1 ankyrin domain affect protein folding to induce a moderate change in its affinity for the H3K9me2 peptide. Thus, it becomes important to compare this information to other, better characterized mutations in ankyrin repeats that are known to be pathogenic in humans. […] Thus, this type of mutation ( ...

CDK4 = settings: non-quantitative two-hybrid GAL4-based reporter assay; cited from earlier work
From the text: as §2

## H3K9me2 peptide: dimethylated histone H3 Lys^9 peptide
EHMT1 WT
  Kd: 760 nM

B1: WT EHMT1: N-terminal His6-tagged recombinant form of WT EHMT1 (protein, UniProt Q9H9B1 2-1298, looked up)
Histone-lysine …: AAADAEAVPARGEPQQDCCVKTELLGEETPMAADEGSAEKQAGEAHMAADGETNGSCENSDASSHANAAKHTQDSARVNPQDGTNTLTRIAENGVSERDSEAAKQNHVTADDFVQTSVIGSNGYILNKPALQAQPLRTTSTLASSLPGHAAKTLPGGAGKGRTPSAFPQTPAAPPATLGEGSADTEDRKLPAPGADVKVHRARKTMPKSVVGLHAASKDPREVREARDHKEPKEEINKNISDFGRQQLLPPFPSLHQSLPQNQCYMATTKSQTACLPFVLAAAVSRKKKRRMGTYSLVPKKKTKVLKQRTVIEMFKSITHSTVGSKGEKDLGASSLHVNGESLEMDSDEDDSEELEEDDGHGAEQAAAFPTEDSRTSKESMSEADRAQKMDGESEEEQESVDTGEEEEGGDESDLSSESSIKKKFLKRKGKTDSPWIKPARKRRRRSRKKPSGALGSESYKSSAGSAEQTAPGDSTGYMEVSLDSLDLRVKGILSSQAEGLANGPDVLETDGLQEVPLCSCRMETPKSREITTLANNQCMATESVDHELGRCTNSVVKYELMRPSNKAPLLVLCEDHRGRMVKHQCCPGCGYFCTAGNFMECQPESSISHRFHKDCASRVNNASYCPHCGEESSKAKEVTIAKADTTSTVTPVPGQEKGSALEGRADTTTGSAAGPPLSEDDKLQGAASHVPEGFDPTGPAGLGRPTPGLSQGPGKETLESALIALDSEKPKKLRFHPKQLYFSARQGELQKVLLMLVDGIDPNFKMEHQNKRSPLHAAAEAGHVDICHMLVQAGANIDTCSEDQRTPLMEAAENNHLEAVKYLIKAGALVDPKDAEGSTCLHLAAKKGHYEVVQYLLSNGQMDVNCQDDGGWTPMIWATEYKHVDLVKLLLSKGSDINIRDNEENICLHWAAFSGCVDIAEILLAAKCDLHAVNIHGDSPLHIAARENRYDCVVLFLSRDSDVTLKNKEGETPLQCASLNSQVWSALQMSKALQDSAPDRPSPVERIVSRDIARGYERIPIPCVNAVDSEPCPSNYKYVSQNCVTSPMNIDRNITHLQYCVCIDDCSSSNCMCGQLSMRCWYDKDGRLLPEFNMAEPPLIFECNHACSCWRNCRNRVVQNGLRARLQLYRTRDMGWGVRSLQDIPPGTFVCEYVGELISDSEADVREEDSYLFDLDNKDGEVYCIDARFYGNVSRFINHHCEPNLVPVRVFMAHQDLRFPRIAFFSTRLIEAGEQLGFDYGERFWDIKGKLFSCRCGSPKCRHSSAALAQRQASAAQEAQEDGLPDTSSAAAADPL
modifications: N-terminal His6 tag
[1]
  λmax of fluorescence emission: ~350 nm

B2: p.P809L: N-terminal His6-tagged recombinant p.P809L EHMT1 variant (c.2426C>T) (protein, UniProt Q9H9B1 2-1298, looked up, variant P809L)
Histone-lysine …: AAADAEAVPARGEPQQDCCVKTELLGEETPMAADEGSAEKQAGEAHMAADGETNGSCENSDASSHANAAKHTQDSARVNPQDGTNTLTRIAENGVSERDSEAAKQNHVTADDFVQTSVIGSNGYILNKPALQAQPLRTTSTLASSLPGHAAKTLPGGAGKGRTPSAFPQTPAAPPATLGEGSADTEDRKLPAPGADVKVHRARKTMPKSVVGLHAASKDPREVREARDHKEPKEEINKNISDFGRQQLLPPFPSLHQSLPQNQCYMATTKSQTACLPFVLAAAVSRKKKRRMGTYSLVPKKKTKVLKQRTVIEMFKSITHSTVGSKGEKDLGASSLHVNGESLEMDSDEDDSEELEEDDGHGAEQAAAFPTEDSRTSKESMSEADRAQKMDGESEEEQESVDTGEEEEGGDESDLSSESSIKKKFLKRKGKTDSPWIKPARKRRRRSRKKPSGALGSESYKSSAGSAEQTAPGDSTGYMEVSLDSLDLRVKGILSSQAEGLANGPDVLETDGLQEVPLCSCRMETPKSREITTLANNQCMATESVDHELGRCTNSVVKYELMRPSNKAPLLVLCEDHRGRMVKHQCCPGCGYFCTAGNFMECQPESSISHRFHKDCASRVNNASYCPHCGEESSKAKEVTIAKADTTSTVTPVPGQEKGSALEGRADTTTGSAAGPPLSEDDKLQGAASHVPEGFDPTGPAGLGRPTPGLSQGPGKETLESALIALDSEKPKKLRFHPKQLYFSARQGELQKVLLMLVDGIDPNFKMEHQNKRSPLHAAAEAGHVDICHMLVQAGANIDTCSEDQRTLLMEAAENNHLEAVKYLIKAGALVDPKDAEGSTCLHLAAKKGHYEVVQYLLSNGQMDVNCQDDGGWTPMIWATEYKHVDLVKLLLSKGSDINIRDNEENICLHWAAFSGCVDIAEILLAAKCDLHAVNIHGDSPLHIAARENRYDCVVLFLSRDSDVTLKNKEGETPLQCASLNSQVWSALQMSKALQDSAPDRPSPVERIVSRDIARGYERIPIPCVNAVDSEPCPSNYKYVSQNCVTSPMNIDRNITHLQYCVCIDDCSSSNCMCGQLSMRCWYDKDGRLLPEFNMAEPPLIFECNHACSCWRNCRNRVVQNGLRARLQLYRTRDMGWGVRSLQDIPPGTFVCEYVGELISDSEADVREEDSYLFDLDNKDGEVYCIDARFYGNVSRFINHHCEPNLVPVRVFMAHQDLRFPRIAFFSTRLIEAGEQLGFDYGERFWDIKGKLFSCRCGSPKCRHSSAALAQRQASAAQEAQEDGLPDTSSAAAADPL
modifications: N-terminal His6 tag
[2]
  α-helical content: reduced α-helical content; also recorded: decrease in the α-helical content
[1]; compared with wild type protein
  fluorescence emission (intensity): decrease of the fluorescence emission
[1]
  λmax of fluorescence emission: 347 nm

B3: p.P81L p16: p.P81L mutation in the TPLX motif within the ankyrin repeat of the tumor suppressor p16 (protein, UniProt P42771 1-156, looked up, variant P81L)
Cyclin-dependent kinase …: MEPAAGSSMEPSADWLATAAARGRVEEVRALLEAGALPNAPNSYGRRPIQVMMMGSARVAELLLLHGAEPNCADPATLTRLVHDAAREGFLDTLVVLHRAGARLDVRDAWGRLPVDLAEELGHRDVARYLRAAAGGTRGSNHARIDAAEGPSDIPD
[3]
  secondary structure: secondary structure alterations
CDK4
  interaction with CDK4: impaired interaction with CDK4
